Assay results published in PMC9482650, “Quantitative fragmentomics allow affinity mapping of interactomes” (Nature Communications, 2022).
Substitutions are numbered along the chain they refer to.

T1: GRIP1_4, Q9Y3R0
T1 sequence (Q9Y3R0 467-571, limits assumed, looked up): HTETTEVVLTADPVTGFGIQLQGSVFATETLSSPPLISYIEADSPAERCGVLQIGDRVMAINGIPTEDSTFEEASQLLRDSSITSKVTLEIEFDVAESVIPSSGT

T2: HTRA4, P83105
T2 sequence (P83105 378-476, limits assumed, looked up): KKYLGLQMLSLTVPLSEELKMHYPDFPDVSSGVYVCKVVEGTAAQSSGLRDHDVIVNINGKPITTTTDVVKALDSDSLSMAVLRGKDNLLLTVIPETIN

T3: APBA3_1, O96018
T3 sequence (O96018 389-490, limits assumed, looked up): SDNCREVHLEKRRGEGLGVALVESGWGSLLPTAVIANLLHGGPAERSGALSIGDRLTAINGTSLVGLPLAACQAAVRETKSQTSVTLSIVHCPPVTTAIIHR

T4: MPP2, Q14168
T4 sequence (Q14168 180-250, limits assumed, looked up): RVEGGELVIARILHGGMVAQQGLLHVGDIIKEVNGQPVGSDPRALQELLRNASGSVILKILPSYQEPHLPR

T5: PDZD2_2, O15018
T5 sequence (O15018 329-429, limits assumed, looked up): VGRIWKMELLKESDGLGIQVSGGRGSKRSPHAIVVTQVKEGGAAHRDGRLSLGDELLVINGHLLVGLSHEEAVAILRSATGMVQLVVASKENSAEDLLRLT

T6: DVL3, Q92997
T6 sequence (Q92997 244-331, limits assumed, looked up): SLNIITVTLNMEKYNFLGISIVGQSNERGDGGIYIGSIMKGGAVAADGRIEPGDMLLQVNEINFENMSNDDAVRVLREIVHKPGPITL

T7: PDZD7_3, Q9H5P4
T7 sequence (Q9H5P4 857-944, limits assumed, looked up): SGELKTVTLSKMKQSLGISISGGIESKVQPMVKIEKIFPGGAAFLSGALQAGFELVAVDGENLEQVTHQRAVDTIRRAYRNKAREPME

T8: FRMPD1, Q5SYB0
T8 sequence (Q5SYB0 52-145, limits assumed, looked up): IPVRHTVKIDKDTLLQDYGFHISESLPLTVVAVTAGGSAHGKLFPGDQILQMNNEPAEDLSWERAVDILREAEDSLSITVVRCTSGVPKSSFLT

T9: LIN7B, Q9HAP6
T9 sequence (Q9HAP6 88-185, limits assumed, looked up): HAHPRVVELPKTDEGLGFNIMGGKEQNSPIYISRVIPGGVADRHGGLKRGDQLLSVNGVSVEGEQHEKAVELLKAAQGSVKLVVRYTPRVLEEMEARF

T10: LIN7C, Q9NUP9
T10 sequence (Q9NUP9 88-185, limits assumed, looked up): T9 sequence (Q9HAP6 88-185, limits assumed, looked up) with A2S, D13E, V35I, V40I, Q65H, S79K, R89K, A96S

T11: LNX2_3, Q8N448
T11 sequence (Q8N448 463-564, limits assumed, looked up): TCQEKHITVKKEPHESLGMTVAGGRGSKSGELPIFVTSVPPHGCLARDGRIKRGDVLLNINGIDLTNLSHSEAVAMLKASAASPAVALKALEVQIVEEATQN


What follows are binders tested against T1, GRIP1_4, Q9Y3R0 (assay: holdup assay). Details: plain residues with an end cap or a label only (N-terminal biotin on a linker: ado-ado).
Design: key: below the threshold = too weak to quantify, mostly under pKd 3.1 to 4

Question: DTTVPESEDL [MYOZ2, Q9NPC6] was tested. Which pKd did it give?
Answer: below the threshold

What follows are binders tested against T2, HTRA4, P83105 (assay: holdup assay). Details: plain residues with an end cap or a label only (N-terminal biotin on a linker: ado-ado).
Design: key: below the threshold = too weak to quantify, mostly under pKd 3.1 to 4

Question: For DTTVPESEDL [MYOZ2, Q9NPC6], which pKd is on record?
Answer: 3.8

The binders below were run against T3, APBA3_1, O96018 (assay: holdup assay). Details: plain residues with an end cap or a label only (N-terminal biotin on a linker: ado-ado).
Design: key: below the threshold = too weak to quantify, mostly under pKd 3.1 to 4

Question: Which pKd does the source give for DTTVPESEDL [MYOZ2, Q9NPC6] here?
Answer: below the threshold

The binders below were run against DLG4_1, P78352 (assay: holdup assay). Details: plain residues with an end cap or a label only (N-terminal biotin on a linker: ado-ado).
Design: key: below the threshold = too weak to quantify, mostly under pKd 3.1 to 4

DLG4_1, P78352, sequence (P78352 62-152): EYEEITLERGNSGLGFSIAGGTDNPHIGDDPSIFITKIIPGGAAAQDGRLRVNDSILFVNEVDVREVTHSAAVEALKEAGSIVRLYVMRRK

Question: DTTVPESEDL [MYOZ2, Q9NPC6] was tested. Which pKd did it give?
Answer: below the threshold

The binders below were run against ARHGEF12, Q9NZN5-2 (assay: holdup assay). Details: plain residues with an end cap or a label only (N-terminal biotin on a linker: ado-ado).
Design: key: below the threshold = too weak to quantify, mostly under pKd 3.1 to 4

ARHGEF12, Q9NZN5-2, sequence (Q9NZN5 other isoform, or with tags, fused parts or gaps): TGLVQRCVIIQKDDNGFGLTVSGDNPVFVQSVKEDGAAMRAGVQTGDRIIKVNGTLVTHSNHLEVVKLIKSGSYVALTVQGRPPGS

Question: Which pKd does the source give for DTTVPESEDL [MYOZ2, Q9NPC6] here?
Answer: below the threshold

Each binder was assayed against Inadl_9, Q8NI35 (assay: holdup assay). Details: plain residues with an end cap or a label only (N-terminal biotin on a linker: ado-ado).
Design: key: below the threshold = too weak to quantify, mostly under pKd 3.1 to 4

Inadl_9, Q8NI35, sequence (Q8NI35 1530-1615): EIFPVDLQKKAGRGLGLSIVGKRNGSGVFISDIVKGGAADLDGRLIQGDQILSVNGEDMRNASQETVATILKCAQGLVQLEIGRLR

Question: For DTTVPESEDL [MYOZ2, Q9NPC6], which pKd is on record?
Answer: below the threshold

The binders below were run against T4, MPP2, Q14168 (assay: holdup assay). Details: plain residues with an end cap or a label only (N-terminal biotin on a linker: ado-ado).
Design: key: below the threshold = too weak to quantify, mostly under pKd 3.1 to 4

Question: With DTTVPESEDL [MYOZ2, Q9NPC6] as the binder, how does the pKd read?
Answer: below the threshold

The binders below were run against NHERF4_1, Q86UT5-2 (assay: holdup assay). Details: plain residues with an end cap or a label only (N-terminal biotin on a linker: ado-ado).
Design: key: below the threshold = too weak to quantify, mostly under pKd 3.1 to 4

NHERF4_1, Q86UT5-2, sequence (Q86UT5 other isoform, or with tags, fused parts or gaps): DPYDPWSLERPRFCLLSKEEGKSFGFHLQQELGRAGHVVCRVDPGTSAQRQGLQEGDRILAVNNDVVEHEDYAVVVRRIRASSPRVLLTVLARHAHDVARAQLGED

Question: With DTTVPESEDL [MYOZ2, Q9NPC6] as the binder, how does the pKd read?
Answer: 3.92

Each binder was assayed against T5, PDZD2_2, O15018 (assay: holdup assay). Details: plain residues with an end cap or a label only (N-terminal biotin on a linker: ado-ado).
Design: key: below the threshold = too weak to quantify, mostly under pKd 3.1 to 4

Question: For DTTVPESEDL [MYOZ2, Q9NPC6], which pKd is on record?
Answer: below the threshold

What follows are binders tested against T6, DVL3, Q92997 (assay: holdup assay). Details: plain residues with an end cap or a label only (N-terminal biotin on a linker: ado-ado).
Design: key: below the threshold = too weak to quantify, mostly under pKd 3.1 to 4

Question: DTTVPESEDL [MYOZ2, Q9NPC6] was tested. Which pKd did it give?
Answer: below the threshold

What follows are binders tested against IL16_4, Q14005 (assay: holdup assay). Details: plain residues with an end cap or a label only (N-terminal biotin on a linker: ado-ado).
Design: key: below the threshold = too weak to quantify, mostly under pKd 3.1 to 4

IL16_4, Q14005, sequence (Q14005 1229-1329): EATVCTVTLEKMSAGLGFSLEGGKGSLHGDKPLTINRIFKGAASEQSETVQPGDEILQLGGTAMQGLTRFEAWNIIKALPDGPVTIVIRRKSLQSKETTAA

Question: How did the pKd turn out when DTTVPESEDL [MYOZ2, Q9NPC6] was run?
Answer: below the threshold

The binders below were run against Inadl_1, Q8NI35 (assay: holdup assay). Details: plain residues with an end cap or a label only (N-terminal biotin on a linker: ado-ado).
Design: key: below the threshold = too weak to quantify, mostly under pKd 3.1 to 4

Inadl_1, Q8NI35, sequence (Q8NI35 113-229): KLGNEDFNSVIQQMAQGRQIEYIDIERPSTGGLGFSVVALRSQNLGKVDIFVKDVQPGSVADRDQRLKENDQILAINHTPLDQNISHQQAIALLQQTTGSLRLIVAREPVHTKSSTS

Question: How did the pKd turn out when DTTVPESEDL [MYOZ2, Q9NPC6] was run?
Answer: below the threshold

These binders were tested against T7, PDZD7_3, Q9H5P4 (assay: holdup assay). Details: plain residues with an end cap or a label only (N-terminal biotin on a linker: ado-ado).
Design: key: below the threshold = too weak to quantify, mostly under pKd 3.1 to 4

Question: With DTTVPESEDL [MYOZ2, Q9NPC6] as the binder, how does the pKd read?
Answer: below the threshold

The binders below were run against NHERF4_4, Q86UT5 (assay: holdup assay). Details: plain residues with an end cap or a label only (N-terminal biotin on a linker: ado-ado).
Design: key: below the threshold = too weak to quantify, mostly under pKd 3.1 to 4

NHERF4_4, Q86UT5, sequence (Q86UT5 464-550): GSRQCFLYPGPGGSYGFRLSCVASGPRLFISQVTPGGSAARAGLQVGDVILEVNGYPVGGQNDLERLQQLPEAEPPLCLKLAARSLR

Question: How did the pKd turn out when DTTVPESEDL [MYOZ2, Q9NPC6] was run?
Answer: below the threshold

Each binder was assayed against T8, FRMPD1, Q5SYB0 (assay: holdup assay). Details: plain residues with an end cap or a label only (N-terminal biotin on a linker: ado-ado).
Design: key: below the threshold = too weak to quantify, mostly under pKd 3.1 to 4

Question: For DTTVPESEDL [MYOZ2, Q9NPC6], which pKd is on record?
Answer: below the threshold

What follows are binders tested against T9, LIN7B, Q9HAP6 (assay: holdup assay). Details: plain residues with an end cap or a label only (N-terminal biotin on a linker: ado-ado).
Design: key: below the threshold = too weak to quantify, mostly under pKd 3.1 to 4

Question: How did the pKd turn out when DTTVPESEDL [MYOZ2, Q9NPC6] was run?
Answer: below the threshold

Each binder was assayed against T10, LIN7C, Q9NUP9 (assay: holdup assay). Details: plain residues with an end cap or a label only (N-terminal biotin on a linker: ado-ado).
Design: key: below the threshold = too weak to quantify, mostly under pKd 3.1 to 4

Question: How did the pKd turn out when DTTVPESEDL [MYOZ2, Q9NPC6] was run?
Answer: below the threshold

What follows are binders tested against Inadl_6, Q8NI35 (assay: holdup assay). Details: plain residues with an end cap or a label only (N-terminal biotin on a linker: ado-ado).
Design: key: below the threshold = too weak to quantify, mostly under pKd 3.1 to 4

Inadl_6, Q8NI35, sequence (Q8NI35 1058-1167): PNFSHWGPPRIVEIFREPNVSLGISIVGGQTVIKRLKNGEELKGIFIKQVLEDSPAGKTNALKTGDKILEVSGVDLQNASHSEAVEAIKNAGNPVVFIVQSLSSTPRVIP

Question: DTTVPESEDL [MYOZ2, Q9NPC6] was tested. Which pKd did it give?
Answer: below the threshold

The binders below were run against Inadl_8, Q8NI35 (assay: holdup assay). Details: plain residues with an end cap or a label only (N-terminal biotin on a linker: ado-ado).
Design: key: below the threshold = too weak to quantify, mostly under pKd 3.1 to 4

Inadl_8, Q8NI35, sequence (Q8NI35 1425-1530): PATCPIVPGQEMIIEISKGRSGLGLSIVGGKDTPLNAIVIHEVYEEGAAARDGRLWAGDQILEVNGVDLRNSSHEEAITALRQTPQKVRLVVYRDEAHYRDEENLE

Question: DTTVPESEDL [MYOZ2, Q9NPC6] was tested. Which pKd did it give?
Answer: below the threshold

These binders were tested against MAST2, Q6P0Q8 (assay: holdup assay). Details: plain residues with an end cap or a label only (N-terminal biotin on a linker: ado-ado).
Design: key: below the threshold = too weak to quantify, mostly under pKd 3.1 to 4

MAST2, Q6P0Q8, sequence (Q6P0Q8 1099-1202): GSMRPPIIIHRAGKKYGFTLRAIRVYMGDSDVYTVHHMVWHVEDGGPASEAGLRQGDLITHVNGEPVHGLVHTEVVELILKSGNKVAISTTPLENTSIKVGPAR

Question: With DTTVPESEDL [MYOZ2, Q9NPC6] as the binder, how does the pKd read?
Answer: 4.7

These binders were tested against GRID2IP_1, A4D2P6 (assay: holdup assay). Details: plain residues with an end cap or a label only (N-terminal biotin on a linker: ado-ado).
Design: key: below the threshold = too weak to quantify, mostly under pKd 3.1 to 4

GRID2IP_1, A4D2P6, sequence (A4D2P6 1-87): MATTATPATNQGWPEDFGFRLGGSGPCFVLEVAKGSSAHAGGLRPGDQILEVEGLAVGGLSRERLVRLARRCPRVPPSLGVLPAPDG

Question: Which pKd does the source give for DTTVPESEDL [MYOZ2, Q9NPC6] here?
Answer: below the threshold

Each binder was assayed against Inadl_3, Q8NI35 (assay: holdup assay). Details: plain residues with an end cap or a label only (N-terminal biotin on a linker: ado-ado).
Design: key: below the threshold = too weak to quantify, mostly under pKd 3.1 to 4

Inadl_3, Q8NI35, sequence (Q8NI35 359-469): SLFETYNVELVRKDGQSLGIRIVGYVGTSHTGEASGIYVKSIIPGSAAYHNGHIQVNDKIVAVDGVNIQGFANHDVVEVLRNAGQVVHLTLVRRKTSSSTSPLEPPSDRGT

Question: Which pKd does the source give for DTTVPESEDL [MYOZ2, Q9NPC6] here?
Answer: below the threshold

The binders below were run against T11, LNX2_3, Q8N448 (assay: holdup assay). Details: plain residues with an end cap or a label only (N-terminal biotin on a linker: ado-ado).
Design: key: below the threshold = too weak to quantify, mostly under pKd 3.1 to 4

Question: For DTTVPESEDL [MYOZ2, Q9NPC6], which pKd is on record?
Answer: below the threshold

What follows are binders tested against FRMPD2_1, Q68DX3 (assay: holdup assay). Details: plain residues with an end cap or a label only (N-terminal biotin on a linker: ado-ado).
Design: key: below the threshold = too weak to quantify, mostly under pKd 3.1 to 4

FRMPD2_1, Q68DX3, sequence (Q68DX3 770-861): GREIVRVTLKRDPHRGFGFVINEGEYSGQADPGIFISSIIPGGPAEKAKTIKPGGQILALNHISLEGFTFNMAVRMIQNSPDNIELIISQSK

Question: For DTTVPESEDL [MYOZ2, Q9NPC6], which pKd is on record?
Answer: below the threshold

These binders were tested against LNX1_3, Q8TBB1 (assay: holdup assay). Details: plain residues with an end cap or a label only (N-terminal biotin on a linker: ado-ado).
Design: key: below the threshold = too weak to quantify, mostly under pKd 3.1 to 4

LNX1_3, Q8TBB1, sequence (Q8TBB1 500-596): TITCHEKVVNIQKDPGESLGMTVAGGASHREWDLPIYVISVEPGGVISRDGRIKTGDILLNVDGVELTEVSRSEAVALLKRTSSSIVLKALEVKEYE

Question: For DTTVPESEDL [MYOZ2, Q9NPC6], which pKd is on record?
Answer: below the threshold

Each binder was assayed against MAGI2_5, Q86UL8 (assay: holdup assay). Details: plain residues with an end cap or a label only (N-terminal biotin on a linker: ado-ado).
Design: key: below the threshold = too weak to quantify, mostly under pKd 3.1 to 4

MAGI2_5, Q86UL8, sequence (Q86UL8 915-1017): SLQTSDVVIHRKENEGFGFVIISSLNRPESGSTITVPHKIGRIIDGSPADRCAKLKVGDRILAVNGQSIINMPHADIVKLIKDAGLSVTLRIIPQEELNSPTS

Question: DTTVPESEDL [MYOZ2, Q9NPC6] was tested. Which pKd did it give?
Answer: below the threshold
